Measurements as given in patent publication US20110166062A1 (INDIANA UNIVERSITY RESEARCH AND TECHNOLOGY, published 2011).
Where no end group is shown, it is not given here. [ ]: non-standard residue; d: D form. The star is where a group is joined. C18 fatty acyl = 18 carbon fatty acyl group covalently attached to Lys; PEG 40 kDa = PEG (40 kDa) covalently attached to Cys; Palmitoyl = CCCCCCCCCCCCCCCC(=O)*; Myristoyl = CCCCCCCCCCCCCC(=O)*; Dab = NCC[C@H](N)C(=O)O; Aib = CC(C)(N)C(=O)O

T1: GIP receptor (UniProt P48546 22-466)
T1 sequence (looked up): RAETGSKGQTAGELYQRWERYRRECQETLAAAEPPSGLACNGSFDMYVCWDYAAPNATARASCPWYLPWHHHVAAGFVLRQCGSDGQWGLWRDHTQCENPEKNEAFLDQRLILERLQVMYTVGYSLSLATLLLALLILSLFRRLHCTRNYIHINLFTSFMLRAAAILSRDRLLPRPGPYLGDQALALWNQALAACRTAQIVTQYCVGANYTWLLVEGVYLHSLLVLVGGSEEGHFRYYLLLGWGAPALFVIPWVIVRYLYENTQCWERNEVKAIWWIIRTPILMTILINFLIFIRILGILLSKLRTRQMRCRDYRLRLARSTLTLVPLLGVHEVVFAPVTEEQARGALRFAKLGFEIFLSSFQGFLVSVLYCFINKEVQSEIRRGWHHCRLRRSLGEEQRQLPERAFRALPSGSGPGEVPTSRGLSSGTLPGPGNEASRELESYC

B1: mt-274 (peptide)
peptide: Y[Aib]EGTFTSDYSIYLDKQAA[Aib]EFVNWLLAGGPSSGAPPPSC(PEG 40 kDa)-NH2
B2: mt-260 (peptide)
peptide: Y[Aib]EGTFTSDYSIYLDKQAA[Aib]EFVNWLLAGGPSSGAPPPSK(Myristoyl)-NH2
B3: mt-275 (peptide)
peptide: YXQGTFTSDYSIYLDXQAAXEFVNWLLAGGPSSGAPPPSC
modifications: Orn at position 16; AIB at position 20
B4: mt-276 (peptide)
peptide: Y[Aib]QGTFTSDYSIYLD[Dab]QAA[Aib]EFVNWLLAGGPSSGAPPPSC-NH2
modifications: N-terminus assumed
SMILES: CC[C@H](C)[C@H](NC(=O)[C@H](CO)NC(=O)[C@H](Cc1ccc(O)cc1)NC(=O)[C@H](CC(=O)O)NC(=O)[C@H](CO)NC(=O)[C@@H](NC(=O)[C@H](Cc1ccccc1)NC(=O)[C@@H](NC(=O)CNC(=O)[C@H](CCC(N)=O)NC(=O)C(C)(C)NC(=O)[C@@H](N)Cc1ccc(O)cc1)[C@@H](C)O)[C@@H](C)O)C(=O)N[C@@H](Cc1ccc(O)cc1)C(=O)N[C@@H](CC(C)C)C(=O)N[C@@H](CC(=O)O)C(=O)N[C@@H](CCN)C(=O)N[C@@H](CCC(N)=O)C(=O)N[C@@H](C)C(=O)N[C@@H](C)C(=O)NC(C)(C)C(=O)N[C@@H](CCC(=O)O)C(=O)N[C@@H](Cc1ccccc1)C(=O)N[C@H](C(=O)N[C@@H](CC(N)=O)C(=O)N[C@@H](Cc1c[nH]c2ccccc12)C(=O)N[C@@H](CC(C)C)C(=O)N[C@@H](CC(C)C)C(=O)N[C@@H](C)C(=O)NCC(=O)NCC(=O)N1CCC[C@H]1C(=O)N[C@@H](CO)C(=O)N[C@@H](CO)C(=O)NCC(=O)N[C@@H](C)C(=O)N1CCC[C@H]1C(=O)N1CCC[C@H]1C(=O)N1CCC[C@H]1C(=O)N[C@@H](CO)C(=O)N[C@@H](CS)C(N)=O)C(C)C
B5: mt-310 (peptide)
peptide: Y[Aib]EGTFTSDYSIYLDKQAA[Aib]EFVC(PEG 40 kDa)WLLAGGPSSGAPPPSK(C18 fatty acyl)-NH2
B6: mt-309 (peptide)
peptide: Y[Aib]EGTFTSDYSIYLDKQAA[Aib]EFVC(PEG 40 kDa)WLLAGGPSSGAPPPSK(Myristoyl)-NH2
B7: mt-298 (peptide)
peptide: Y[Aib]EGTFTSDYSIYLDKQAA[Aib]EFVC(PEG 40 kDa)WLLAGGPSSGAPPPSK(Palmitoyl)-NH2
B8: mt-311 (peptide)
peptide: Y[Aib]EGTFTSDYSIYLDKQAA[Aib]EFVC(PEG 40 kDa)WLLAGGPSSGAPPPSK-NH2
modifications: not fully specified
B9: mt-306 (peptide)
peptide: Y[Aib]EGTFTSDYSIYLDKQAA[Aib]EFVCWLLAGGPSSGAPPPSK(Myristoyl)-NH2
modifications: N-terminus assumed
SMILES: CCCCCCCCCCCCCC(=O)NCCCC[C@H](NC(=O)[C@H](CO)NC(=O)[C@@H]1CCCN1C(=O)[C@@H]1CCCN1C(=O)[C@@H]1CCCN1C(=O)[C@H](C)NC(=O)CNC(=O)[C@H](CO)NC(=O)[C@H](CO)NC(=O)[C@@H]1CCCN1C(=O)CNC(=O)CNC(=O)[C@H](C)NC(=O)[C@H](CC(C)C)NC(=O)[C@H](CC(C)C)NC(=O)[C@H](Cc1c[nH]c2ccccc12)NC(=O)[C@H](CS)NC(=O)[C@@H](NC(=O)[C@H](Cc1ccccc1)NC(=O)[C@H](CCC(=O)O)NC(=O)C(C)(C)NC(=O)[C@H](C)NC(=O)[C@H](C)NC(=O)[C@H](CCC(N)=O)NC(=O)[C@H](CCCCN)NC(=O)[C@H](CC(=O)O)NC(=O)[C@H](CC(C)C)NC(=O)[C@H](Cc1ccc(O)cc1)NC(=O)[C@@H](NC(=O)[C@H](CO)NC(=O)[C@H](Cc1ccc(O)cc1)NC(=O)[C@H](CC(=O)O)NC(=O)[C@H](CO)NC(=O)[C@@H](NC(=O)[C@H](Cc1ccccc1)NC(=O)[C@@H](NC(=O)CNC(=O)[C@H](CCC(=O)O)NC(=O)C(C)(C)NC(=O)[C@@H](N)Cc1ccc(O)cc1)[C@@H](C)O)[C@@H](C)O)[C@@H](C)CC)C(C)C)C(N)=O
B10: mt-307 (peptide)
peptide: Y[Aib]EGTFTSDYSIYLDKQAA[Aib]EFVCWLLAGGPSSGAPPPSK(C18 fatty acyl)-NH2
B11: mt-308 (peptide)
peptide: Y[Aib]EGTFTSDYSIYLDKQAA[Aib]EFVCWLLAGGPSSGAPPPSK-NH2
modifications: N-terminus assumed
SMILES: CC[C@H](C)[C@H](NC(=O)[C@H](CO)NC(=O)[C@H](Cc1ccc(O)cc1)NC(=O)[C@H](CC(=O)O)NC(=O)[C@H](CO)NC(=O)[C@@H](NC(=O)[C@H](Cc1ccccc1)NC(=O)[C@@H](NC(=O)CNC(=O)[C@H](CCC(=O)O)NC(=O)C(C)(C)NC(=O)[C@@H](N)Cc1ccc(O)cc1)[C@@H](C)O)[C@@H](C)O)C(=O)N[C@@H](Cc1ccc(O)cc1)C(=O)N[C@@H](CC(C)C)C(=O)N[C@@H](CC(=O)O)C(=O)N[C@@H](CCCCN)C(=O)N[C@@H](CCC(N)=O)C(=O)N[C@@H](C)C(=O)N[C@@H](C)C(=O)NC(C)(C)C(=O)N[C@@H](CCC(=O)O)C(=O)N[C@@H](Cc1ccccc1)C(=O)N[C@H](C(=O)N[C@@H](CS)C(=O)N[C@@H](Cc1c[nH]c2ccccc12)C(=O)N[C@@H](CC(C)C)C(=O)N[C@@H](CC(C)C)C(=O)N[C@@H](C)C(=O)NCC(=O)NCC(=O)N1CCC[C@H]1C(=O)N[C@@H](CO)C(=O)N[C@@H](CO)C(=O)NCC(=O)N[C@@H](C)C(=O)N1CCC[C@H]1C(=O)N1CCC[C@H]1C(=O)N1CCC[C@H]1C(=O)N[C@@H](CO)C(=O)N[C@@H](CCCCN)C(N)=O)C(C)C
B12: mt-296 (peptide)
peptide: Y[Aib]EGTFTSDYSIYLDKQAA[Aib]EFVCWLLAGGPSSGAPPPSK(Palmitoyl)-NH2
modifications: N-terminus assumed
SMILES: CCCCCCCCCCCCCCCC(=O)NCCCC[C@H](NC(=O)[C@H](CO)NC(=O)[C@@H]1CCCN1C(=O)[C@@H]1CCCN1C(=O)[C@@H]1CCCN1C(=O)[C@H](C)NC(=O)CNC(=O)[C@H](CO)NC(=O)[C@H](CO)NC(=O)[C@@H]1CCCN1C(=O)CNC(=O)CNC(=O)[C@H](C)NC(=O)[C@H](CC(C)C)NC(=O)[C@H](CC(C)C)NC(=O)[C@H](Cc1c[nH]c2ccccc12)NC(=O)[C@H](CS)NC(=O)[C@@H](NC(=O)[C@H](Cc1ccccc1)NC(=O)[C@H](CCC(=O)O)NC(=O)C(C)(C)NC(=O)[C@H](C)NC(=O)[C@H](C)NC(=O)[C@H](CCC(N)=O)NC(=O)[C@H](CCCCN)NC(=O)[C@H](CC(=O)O)NC(=O)[C@H](CC(C)C)NC(=O)[C@H](Cc1ccc(O)cc1)NC(=O)[C@@H](NC(=O)[C@H](CO)NC(=O)[C@H](Cc1ccc(O)cc1)NC(=O)[C@H](CC(=O)O)NC(=O)[C@H](CO)NC(=O)[C@@H](NC(=O)[C@H](Cc1ccccc1)NC(=O)[C@@H](NC(=O)CNC(=O)[C@H](CCC(=O)O)NC(=O)C(C)(C)NC(=O)[C@@H](N)Cc1ccc(O)cc1)[C@@H](C)O)[C@@H](C)O)[C@@H](C)CC)C(C)C)C(N)=O

These binders were tested against glucagon receptor (UniProt P47871 26-477, limits assumed) (assay: cell-based or functional assay).
Chain of glucagon receptor (P47871 26-477 limits assumed): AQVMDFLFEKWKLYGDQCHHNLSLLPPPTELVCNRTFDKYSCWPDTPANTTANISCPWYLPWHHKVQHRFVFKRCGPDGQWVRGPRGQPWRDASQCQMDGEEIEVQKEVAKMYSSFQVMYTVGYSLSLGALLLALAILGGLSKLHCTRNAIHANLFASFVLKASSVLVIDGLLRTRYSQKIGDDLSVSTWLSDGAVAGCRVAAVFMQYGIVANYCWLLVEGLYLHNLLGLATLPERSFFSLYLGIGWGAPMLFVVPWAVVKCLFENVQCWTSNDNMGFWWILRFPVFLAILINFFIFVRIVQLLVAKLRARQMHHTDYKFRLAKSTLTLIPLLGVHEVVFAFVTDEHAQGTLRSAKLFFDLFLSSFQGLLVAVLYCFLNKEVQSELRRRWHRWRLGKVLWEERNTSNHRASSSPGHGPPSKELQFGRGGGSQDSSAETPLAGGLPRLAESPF

Binder | EC50 [nM] | relative activity [%]
B1 | 69.1 | 0.06
B2 | 0.321 | –
B3 | 0.0671 | 62.1
B4 | 0.0537 | 77.7
B5 | 0.775 | 8.24
B6 | 3.61 | 1.77
B7 | 1.76 | 3.63
B8 | 197 | 0.03

What follows are binders tested against GLP-1 receptor (UniProt P43220 24-463, limits assumed) (assay: cell-based or functional assay).

Binder | EC50 [nM] | relative activity [%]
B1 | 0.0916 | 7.75
B2 | 0.0068 | –
B9 | 0.0201 | –
B10 | 0.0143 | –
B3 | 0.0068 | 104
B4 | 0.0066 | 108
B11 | 0.0237 | –
B5 | 0.0062 | 253
B6 | 0.0104 | 151
B7 | 0.0087 | 180
B12 | 0.0124 | –
B8 | 0.217 | 7.22

The binders below were run against T1, GIP receptor (assay: cell-based or functional assay).

Binder | EC50 [nM] | relative activity [%]
B1 | 0.035 | 39.7
B2 | 0.0018 | –
B9 | 0.0064 | –
B10 | 0.0127 | –
B3 | 0.0124 | 112
B4 | 0.008 | 174
B11 | 0.0057 | –
B5 | 0.0075 | 275
B6 | 0.0091 | 226
B7 | 0.0051 | 404
B12 | 0.0077 | –
B8 | 0.0545 | 37.8
